Data reported in publication PMC9704693.

Biological target: extracellular fragment of lymphotoxin-beta receptor (LTβR) (629-LR-100, R&D Systems) (UniProt P36941)
Experiment: SPR

Q: “Ixodes persulcatus salivary protein (IpSAP), recombinant (natural protein)” was tested. Which Kd did it give?
A: 124 nM
